Experimental data as given in patent US12479928B2, “Anti-cancer peptide” (Minerva Biotechnologies Corporation, priority 2014, dated 2025).
“And” between values parts separate entries of the source, which are not always exact repeats. Identical values can stand only once.

How the values were obtained:
T47D breast cancer cells = test: Induced transition of breast cancer cells to a more metastatic state, RT-PCR of metastatic markers; type: cell-based, human
Procedure: In one particular experiment, T47D human breast cancer cells were cultured in standard RPMI media for 14 days with media changes every 48 hours and passed by trypsinization when approximately 75% confluent. The cells were then plated into 6-well plates and cultured in minimal stem cell media (see Example 1) that was supplemented with 4 nM NME7-AB. Media was changed every 48 hours. By about Day 4, some cells become detached from the surface and float. Media is carefully changed so as to retain the “floaters” as these are the cells that have the highest metastatic potential as evidence by RT-PCR measurement of metastatic markers. On Day 7 or 8, the floaters are harvested and counted. Samples are retained for RT-PCR measurement.
We have shown that NME7-AB promotes cancerous growth and causes cancer cells to accelerate to the highly metastatic cancer stem cell (CSC) state also called tumor initiating cells (TIC). Therefore, we conclude that NME7-X1 and an NME7 cleavage product that removes the DM10 domain also promote cancerous growth and causes cancer cells to accelerate to the highly metastatic cancer stem cell (CSC) state also called tumor initiating cells (TIC). In one example, NME7-AB was added to cancer cells in a serum-free media and in the absence of any other growth factors or cytokines. […] After 10 days cells were collected and analyzed by RT-PCR for expression of molecular markers of CSCs which were elevated by 10-200-times (FIGS. 11, 12). […]
A rho I kinase inhibitor, ROCi, ROCKi or Ri, was added to prevent the transformed cells from floating off the plate. Expression levels of various metastatic markers as well as pluripotent stem cell markers were measured for the parent cells and for the NME7-AB cultured cells.
T47D human breast cancer cells were cultured in standard RPMI media for 14 days with media changes every 48 hours and passed by trypsinization when approximately 75% confluent. […] On Day 7 or 8, the floaters are harvested and counted. […]

[1] = system: T47D human breast cancer cells xenografted; test: Xenograft of NME7-AB cultured floater cells in nu/nu mice with daily NME7-AB injection; type: in vivo, female nu/nu athymic mice
Procedure: The freshly harvested floater metastatic cells were xenografted into the flank of female nu/nu athymic mice that have been implanted with 90-day slow release estrogen pellets. Floater cells were xenografted with 10,000, 1,000, 100 or 50 cells each. Half of the mice in each group of 6 were also injected daily with 32 nM NME7-AB near the original implantation site. The parent T47D cells that were cultured in RPMI media without NME7-AB were also implanted into mice at 6 million, 10,000 or 100 as controls. Mice implanted with the NME7-induced floater cells developed tumors even when as few as 50 cells were implanted. Mice that were implanted with the floater cells and that received daily injections of NME7-AB also developed remote tumors or remote metastases in various organs (FIG. 20-25). 11 out of the 12 mice, or 92%, that were injected with human NME7-AB after implantation of the NME7-AB cultured cancer cells developed tumors at the injection site. Only 7 out of the 12 mice, or 58%, that were not injected with human NME7-AB after implantation developed tumors. […] None of the mice that were not injected with NME7-AB developed multiple, visible tumors.
The freshly harvested floater metastatic cells are xenografted into the flank of female nu/nu athymic mice that have been implanted with 90-day slow release estrogen pellets. Floater cells were xenografted as 10,000, 1,000, 100 or 50 cells each. Half of the mice in each group of 6 were also injected daily with 32 nM NME7-AB near the original implantation site. The parent T47D cells that were cultured in RPMI media without NME7-AB were also implanted into mice as 6 million, 10,000 or 100 as controls. Mice implanted with the NME7-induced floater cells developed tumors even when as few as 50 cells were implanted. Mice that were implanted with the floater cells and that received daily injections of NME7-AB also developed remote tumors or remote metastases in various organs (FIG. 20-25). 11 out of the 12 mice, or 92%, that were injected with human NME7-AB after implantation of the NME7-AB cultured cancer cells, developed tumors at the injection site. Only 7 out of the 12 mice, or 58%, that were not injected with human NME7-AB after implantation developed tumors. 9 out of the 11 mice, or 82%, that got tumors and were injected with human NME7-AB developed multiple tumors remote from the injection site. None of the mice that were not injected with NME7-AB developed multiple, visible tumors.

[2] = system: SK-OV3 ovarian cancer cell line; test: RT-PCR of metastatic markers after culture in NME7-AB, SK-OV3; type: cell-based, human; settings: 72 or 144 hours
Excerpt: (§1) FIGS. 37A-37C show graphs of RT-PCR measurements of metastatic markers in cancer cells after being cultured in a serum-free media containing NME7-AB compared to the standard media.

[3] = system: OV-90 ovarian cancer cell line; test: RT-PCR of metastatic markers after culture in NME7-AB, OV-90; type: cell-based, human; settings: 72 or 144 hours
Excerpt: as §1

B1: NME7-AB: recombinant human NME7 devoid of the DM10 domain, NDPK A and B domains, about 33 kDa monomer (protein)
chain: MEKTLALIKPDAISKAGEIIEIINKAGFTITKLKMMMLSRKEALDFHVDHQSRPFFNELIQFITTGPIIAMEILRDDAICEWKRLLGPANSGVARTDASESIRALFGTDGIRNAAHGPDSFASAAREMELFFPSSGGCGPANTAKFTNCTCCIVKPHAVSEGLLGKILMAIRDAGFEISAMQMFNMDRVNVEEFYEVYKGVVTEYHDMVTEMYSGPCVAMEIQQNNATKTFREFCGPADPEIARHLRPGTLRAIFGKTKIQNAVHCTDLPEDGLLEVQYFFKILDN
- CXCR4 up-regulation (T47D breast cancer cells; 4 nM NME7-AB in minimal stem cell media, floaters Day 7 or 8): 40-200 times
- elevation of molecular markers of CSCs (T47D breast cancer cells; 16 nM NME7-AB, after 10 days): 10-200 times
- increase in expression of molecular markers such as CXCR4 (T47D breast cancer cells; serum-free media, within 7-10 days): more than 100 fold
- number of implanted NME7-induced floater cells that developed tumors ([1]; cells pre-cultured in NME7-AB): ≤ 50 cells
- mice that developed tumors at the injection site ([1]; injected daily with 32 nM NME7-AB, 11 out of 12 mice): 92%
- mice that developed multiple tumors remote from the injection site ([1]; injected daily with NME7-AB, 9 out of 11 mice with tumors): 82% and 80%
- engraftment rate of cancer cells cultured in NME7-AB ([1]; xenografted into test animals): over 90%
- metastatic marker expression after culture in NME7-AB [2]: increase expression of metastatic markers CHD1, SOX2 and NME7-X1
- metastatic marker expression after culture in NME7-AB [3]: increase expression of metastatic markers CXCR4 and NME7-X1
